Our source for the IC50 values is patent US6465430.

In general, IC50 refers to the concentration at which inhibition is half-maximal.

The target in this assay is soluble TPO-R (thrombopoietin receptor), immobilized (UniProt P40238 26-491). The assay can be described thus: competition ELISA vs MBP-TPO156 (+: IC50 <=200 µM). (In an ELISA, binding on a coated surface is turned into a signal by an enzyme label.)

Bridges are numbered along the chain shown (N, C = ends). Where no end group is shown, it is not given here.

Chain of soluble TPO-R (thrombopoietin receptor), immobilized (P40238 26-491): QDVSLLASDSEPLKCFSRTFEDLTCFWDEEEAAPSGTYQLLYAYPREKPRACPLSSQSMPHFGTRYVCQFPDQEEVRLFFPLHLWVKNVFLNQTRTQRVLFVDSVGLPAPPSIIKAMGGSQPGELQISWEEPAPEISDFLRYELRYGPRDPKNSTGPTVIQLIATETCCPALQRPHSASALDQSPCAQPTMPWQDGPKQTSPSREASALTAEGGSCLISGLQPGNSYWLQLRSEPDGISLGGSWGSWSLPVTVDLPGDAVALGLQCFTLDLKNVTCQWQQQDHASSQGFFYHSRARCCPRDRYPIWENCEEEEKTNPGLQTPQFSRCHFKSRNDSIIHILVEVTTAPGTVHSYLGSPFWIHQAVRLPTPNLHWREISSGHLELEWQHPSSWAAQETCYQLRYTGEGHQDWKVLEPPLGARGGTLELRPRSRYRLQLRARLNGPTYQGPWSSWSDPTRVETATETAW

Molecule CPTLREWISFC-NH2 (disulfide 1-11 (inferred)) [cyclized SEQ ID NO:12 compound, ADG - deletion] displayed an IC50 of 0.5 to 200 µM.

With CADGPTLREWASFC-NH2 (disulfide 1-14 (inferred)) [cyclized SEQ ID NO:12 compound, I - A], the IC50 was in the range of 0.5 to 200 µM.
